Literature values, collected in PMC9254164.

Target: phospho-ubiquitin (Homo sapiens) (UniProt P0CG47)

Chain of Parkin (O60260 whole entry): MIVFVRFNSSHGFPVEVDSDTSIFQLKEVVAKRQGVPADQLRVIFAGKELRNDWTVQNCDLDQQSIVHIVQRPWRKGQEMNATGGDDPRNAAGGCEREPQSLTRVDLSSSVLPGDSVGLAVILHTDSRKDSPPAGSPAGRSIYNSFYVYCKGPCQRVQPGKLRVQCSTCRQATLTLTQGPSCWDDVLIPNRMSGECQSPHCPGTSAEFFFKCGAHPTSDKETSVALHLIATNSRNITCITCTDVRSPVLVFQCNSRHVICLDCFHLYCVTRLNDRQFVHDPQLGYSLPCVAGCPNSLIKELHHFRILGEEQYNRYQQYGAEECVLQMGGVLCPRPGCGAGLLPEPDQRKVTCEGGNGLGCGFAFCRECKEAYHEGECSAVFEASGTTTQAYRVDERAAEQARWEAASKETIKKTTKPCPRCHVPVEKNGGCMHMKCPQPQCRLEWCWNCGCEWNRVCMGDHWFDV

In the case of Parkin (from UniProt O60260), the Kd is given as 20 nM.
